Measured values: patent publication US20050020528A1

Columns and labels:
[1] = biological target: fusin/CXCR4 receptor (UniProt P61073); assay: flow cytometry, fluorescently labeled 12G5 on untreated U937 cells
[2] = biological target: fusin/CXCR4 receptor (UniProt P61073); assay: flow cytometry on U937 cells, background subtracted from the 12G5 data

Chain of UniProt P61073 (P61073 whole entry): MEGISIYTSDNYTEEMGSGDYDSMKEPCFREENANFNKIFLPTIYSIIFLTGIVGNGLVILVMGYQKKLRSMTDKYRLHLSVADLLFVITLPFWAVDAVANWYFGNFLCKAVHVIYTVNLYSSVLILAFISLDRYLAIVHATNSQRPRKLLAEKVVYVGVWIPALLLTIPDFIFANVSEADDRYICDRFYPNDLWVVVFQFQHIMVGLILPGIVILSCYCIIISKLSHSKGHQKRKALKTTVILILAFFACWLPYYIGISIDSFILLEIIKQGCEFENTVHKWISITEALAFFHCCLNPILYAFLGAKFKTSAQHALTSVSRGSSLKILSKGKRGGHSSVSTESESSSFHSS

Row | Median Fluorescence (net of isotype control) [1] | median fluorescence [2] | Substance
1 | 23.2 | – | anti-fusin/CXCR4 12G5 monoclonal antibody
2 | – | 3.6 | isotype control (antibody)
